The text below walks through data of publication PMC11707192 (Nature Communications, 2025).

What is called Kd is the constant that tells how readily two partners part at equilibrium. A higher Kd goes with a looser complex. By stoichiometry N is commonly meant a count of units in the complex or per binding partner.

The labels stand for the following.
T1: UHRF1 TTD-PHD (deletion 167-175) (human, UniProt Q96T88 134-366, deletion 167-175)
T1 sequence (looked up): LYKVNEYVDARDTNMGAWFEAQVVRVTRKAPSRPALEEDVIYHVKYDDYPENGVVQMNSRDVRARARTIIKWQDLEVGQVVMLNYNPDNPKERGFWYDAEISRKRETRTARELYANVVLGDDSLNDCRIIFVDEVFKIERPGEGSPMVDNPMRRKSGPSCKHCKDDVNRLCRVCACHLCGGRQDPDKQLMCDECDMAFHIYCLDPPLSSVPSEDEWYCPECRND

B1: hSTE-1 (peptide of the hSTELLA Swap1 region, residues 75-121) (peptide, UniProt Q6W0C5 75-121, looked up)
peptide: EDEWLYSRRGVRTLLSVQREKMARLRYMLLGGVRTHERRPTNKEPKG
B2: mSTE-1 (peptide of the mSTELLA Swap1 region, residues 80-119) (peptide, UniProt Q8QZY3 80-119, looked up)
peptide: QSAFPKRRVRTLLSVLKDPIAKMRRLVRIEQRQKRLEGNE
B3: UHRF1 TTD-PHD (134-366) (domain or fragment, human, UniProt Q96T88 134-366, looked up)
chain: LYKVNEYVDARDTNMGAWFEAQVVRVTRKAPSRDEPCSSTSRPALEEDVIYHVKYDDYPENGVVQMNSRDVRARARTIIKWQDLEVGQVVMLNYNPDNPKERGFWYDAEISRKRETRTARELYANVVLGDDSLNDCRIIFVDEVFKIERPGEGSPMVDNPMRRKSGPSCKHCKDDVNRLCRVCACHLCGGRQDPDKQLMCDECDMAFHIYCLDPPLSSVPSEDEWYCPECRND
B4: UHRF1 PHD domain (298-367) (domain or fragment, human, UniProt Q96T88 298-367, looked up)
chain: SGPSCKHCKDDVNRLCRVCACHLCGGRQDPDKQLMCDECDMAFHIYCLDPPLSSVPSEDEWYCPECRNDA

Assay [1] concerns the target T1, UHRF1 TTD-PHD (deletion 167-175). Nature of the assay: crystal structure.
Assay [2] addresses B4. The experiment in a line: ITC. (Isothermal titration calorimetry measures the heat released or taken up as one component is titrated into another.)
The target in the assay “UHRF1 TTD-PHD (134-366)” is B3. The experiment in a line: ITC.
Assay [3] addresses B1. The experiment in a line: ITC.
In assay [4] the target is B2. Nature of the assay: ITC.

On to B1, for which the binding result in assay [1] is listed as “binds”. For the same molecule, the dissociation constant (Kd) amounted to 818 nM in assay [2] and 786 nM with UHRF1 TTD-PHD (134-366).

B2: the dissociation constant Kd in assay [2] was 91.2 nM; in the assay with UHRF1 TTD-PHD (134-366) it was 5.84 nM.

With B3, the “fold weaker affinity than the H3K9me3 tail” value in assay [3] was determined as 4 fold. Moreover, in assay [4], the “fold more potent affinity than the H3K9me3 tail” value was more than 30 fold.

Regarding KRRVRTLLSVLKDPIAKMRRLVRIEQRQKRLEGNE (peptide, UniProt Q8QZY3 85-119, looked up) [mSTE-2 (truncated peptide within mSTE-1, residue 85-119)], the binding result in assay [1] and in assay [2] was “binds” throughout.

On to B4, for which the “stoichiometry N” value in assay [3] and in assay [4] was 1 throughout.
